The target in the assay is B lymphocyte surface IgM (mouse (endogenous in spleen cells)). As to the kind of experiment: cocapping.
B lymphocyte surface IgM (mouse (endogenous in spleen cells)), sequence (P01872 whole entry): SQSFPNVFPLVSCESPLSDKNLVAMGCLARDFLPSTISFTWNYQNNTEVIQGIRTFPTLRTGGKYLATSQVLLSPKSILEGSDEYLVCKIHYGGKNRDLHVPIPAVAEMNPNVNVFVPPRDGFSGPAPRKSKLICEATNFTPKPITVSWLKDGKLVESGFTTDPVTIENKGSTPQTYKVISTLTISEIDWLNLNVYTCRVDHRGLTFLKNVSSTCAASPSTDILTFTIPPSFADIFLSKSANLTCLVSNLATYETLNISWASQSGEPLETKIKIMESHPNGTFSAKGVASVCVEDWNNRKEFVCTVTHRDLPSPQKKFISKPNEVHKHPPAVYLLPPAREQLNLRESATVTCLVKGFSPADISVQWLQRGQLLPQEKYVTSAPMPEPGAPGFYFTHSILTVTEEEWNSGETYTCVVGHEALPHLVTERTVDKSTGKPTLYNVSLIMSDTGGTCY

Turning to “B lymphocyte Fc IgG receptor (from UniProt P08101 30-330)”, the % of B lymphocytes with capped sIgM that also had capped FcGR (12 experiments) worked out at 86%; the % of FcGR-positive cells with FcGR capped (Table III, experiment B, part 4) came to 62%; the % of FcGR-positive cells with FcGR capped (Table IV, part 4) stood at 46%.

Source of the values: paper PMC2186165.
